For orientation: % inhibition means the change of the read-out against control, counted positive when it falls.

The target in experiment [1] is activated leucocyte-cell adhesion molecule (ALCAM), CD6 ligand (human). Description: indirect immunofluorescence and flow cytometry, cultured TE cells; control. A general note: A flow cytometer gives signals particle by particle.
For experiment [2] the target is unchanged. Description: flow cytometry, TE cells after CD58 mAb.
Experiment [3] shares this target. Description: flow cytometry, TE cells after CD63 mAb; CD5-Rg subtracted.
For experiment [4] the target is unchanged. The experiment in a line: flow cytometry, HBL-100 cells after mAb J4-81.
Experiment [5] has the same target. The experiment in a line: flow cytometry, TE cells after CD66 mAb.
For experiment [6] the target is unchanged. The experiment in a line: flow cytometry, TE cells after mAb J4-81; CD5-Rg subtracted.
For experiment [7] the target is unchanged. Description: flow cytometry, TE cells after CD51 mAb.
Experiment [8] shares this target. The experiment in a line: flow cytometry, TE cells, buffer with 5 mM CaCl2.
For experiment [9] the target is unchanged. Description: flow cytometry, TE cells after CD46 mAb; CD5-Rg subtracted.
Experiment [10] has the same target. Description: flow cytometry, TE cells after CD54 mAb.
Experiment [11] has the same target. Description: flow cytometry, TE cells after CD54 mAb; CD5-Rg subtracted.
The target is the same in experiment [12]. The experiment in a line: flow cytometry, TE cells after CD9 mAb; CD5-Rg subtracted.
Experiment [13] has the same target. The experiment in a line: flow cytometry, TE cells after CD24 mAb; CD5-Rg subtracted.
Experiment [14] has the same target. Description: flow cytometry, TE cells, 10 mM EDTA against DME with 5% FBS.
The target is the same in experiment [15]. The experiment in a line: flow cytometry, TE cells after control mAb P3.
For experiment [16] the target is unchanged.
For experiment [17] the target is unchanged. Description: flow cytometry, TE cells after CD66 mAb; CD5-Rg subtracted.
For experiment [18] the target is unchanged. The experiment in a line: flow cytometry, TE cells after mAb J4-81.
The target is the same in experiment [19]. Description: flow cytometry, TE cells, buffer with 5 mM MgCl2.
Experiment [20] has the same target. Description: flow cytometry, TE cells after CD40 mAb.
For experiment [21] the target is unchanged. The experiment in a line: flow cytometry, TE cells after CD58 mAb; CD5-Rg subtracted.
The target is the same in experiment [22]. The experiment in a line: flow cytometry, TE cells after CD59 mAb; CD5-Rg subtracted.
Experiment [23] shares this target. Description: indirect immunofluorescence and flow cytometry, cultured TE cells.
For experiment [24] the target is unchanged. The experiment in a line: flow cytometry, TE cells after CD59 mAb.
Experiment [25] shares this target. The experiment in a line: flow cytometry, TE cells after CD63 mAb.
For experiment [26] the target is unchanged. Description: flow cytometry, TE cells after CD46 mAb.
Experiment [27] has the same target. Description: flow cytometry, TE cells after CD9 mAb.
Experiment [28] shares this target. The experiment in a line: flow cytometry, HBL-100 cells, 10 to 200 µg/ml.
The target is the same in experiment [29]. The experiment in a line: flow cytometry, TE cells after CD40 mAb; CD5-Rg subtracted.
The target is the same in experiment [30]. The experiment in a line: flow cytometry, TE cells after CD24 mAb.
Experiment [31] has the same target. The experiment in a line: flow cytometry, HBL-100 cells after control mAb P3.
Experiment [32] has the same target. The experiment in a line: flow cytometry, HBL-100 cells after mAb J4-81; CD5-Rg subtracted.
Experiment [33] has the same target. Description: flow cytometry, TE cells after control mAb P3; CD5-Rg subtracted.
Experiment [34] has the same target. Description: flow cytometry, TE cells, buffer with 5 mM MnCl2.
The target is the same in experiment [35]. Description: flow cytometry, HBL-100 cells after control mAb P3; CD5-Rg subtracted.
For experiment [36] the target is unchanged. Description: flow cytometry, TE cells after CD51 mAb; CD5-Rg subtracted.
Experiment [37] shares this target. This is another data set of the same source.

Consider “CD5-Rg fusion protein (from UniProt P06127) (Fc fusion)”, for which, in experiment [1], the MFC (linear mean fluorescence channel) came out at 72.1.
As to “CD6-Rg fusion protein (CD6 receptor globulin) (from UniProt P30203) (Fc fusion)”, the % Binding came to 87% in [2]; 59% in experiment [4]; 108% in experiment [5]; 88% in [7]; 85% in experiment [10]; 100% in experiment [15]. For the same molecule, the % Binding in [18] amounted to 40%; in experiment [20], 92%; in [24], 100%; in experiment [25], 102%; in experiment [26] it was 110%; in [27] it was 115%. Moreover, the % Binding in experiment [30] was determined as 92%; in [31], 100%. Further, the % inhibition was 13% in experiment [2]; -8% in [5]; 12% in experiment [7]; 15% in experiment [10]; 0% in [15]; 8% in [20]. The % inhibition in [24] is 0%; in experiment [25] it was -2%; in experiment [26], -10%; in [27], -15%; in experiment [30] it was 8%; in experiment [31] it was 0%. Moreover, the Δ Fluorescence turned out to be 53 in experiment [3]; 21 in experiment [6]; 57 in [9]; 44 in experiment [11]; 60 in experiment [12]; 48 in experiment [13]. The Δ Fluorescence in experiment [17] worked out at 56; in experiment [21] it was 45; in experiment [22], 52; in experiment [29], 48; in experiment [32], 34; in experiment [33], 52. Besides, the Δ Fluorescence in experiment [35] stood at 58; in experiment [36], 46. This molecule also came in with a relative binding with 5 mM CaCl2 in [8] of 144%. The same molecule gave a % inhibition of binding by 10 mM EDTA in experiment [14] of 54%. In addition, the % Inhibition of thymocyte-thymic epithelial cell binding (rosettes) in experiment [16] stood at 34.5%. The relative binding with 5 mM MgCl2 in [19] worked out at 94%. The same molecule registered an MFC (linear mean fluorescence channel) in experiment [23] of 165. In addition, the saturating concentration in experiment [28] came to 100 µg/mL. The same molecule came in with a relative binding with 5 mM MnCl2 in experiment [34] of 318%.
Consider “ELAM1-Rg fusion protein (from UniProt P16581) (Fc fusion)”, for which the MFC (linear mean fluorescence channel) in experiment [1] turned out to be 70.5.
The same measure, in the same setting: the value for human IgG1 (control) was 72.9.

B1: CD6, P30203 (protein)
chain: HPSPAPPDQLNTSSAESELWEPGERLPVRLTNGSSSCSGTVEVRLEASWEPACGALWDSRAAEAVCRALGCGGAEAASQLAPPTPELPPPPAAGNTSVAANATLAGAPALLCSGAEWRLCEVVEHACRSDGRRARVTCAENRALRLVDGGGACAGRVEMLEHGEWGSVCDDTWDLEDAHVVCRQLGCGWAVQALPGLHFTPGRGPIHRDQVNCSGAEAYLWDCPGLPGQHYCGHKEDAGAVCSEHQSWRLTGGADRCEGQVEVHFRGVWNTVCDSEWYPSEAKVLCQSLGCGTAVERPKGLPHSLSGRMYYSCNGEELTLSNCSWRFNNSNLCSQSLAARVLCSASRSLHNLSTPEVPASVQTVTIESSVTVKIENKESRELMLLIPSIVLGILLLGSLIFIAFILLRIKGKYALPVMVNHQHLPTTIPAGSNSYQPVPITIPKEVFMLPIQVQAPPPEDSDSGSDSDYEHYDFSAQPPVALTTFYNSQRHRVTDEEVQQSRFQMPPLEEGLEELHASHIPTANPGHCITDPPSLGPQYHPRSNSESSTSSGEDYCNSPKSKLPPWNPQVFSSERSSFLEQPPNLELAGTQPAFSAGPPADDSSSTSSGEWYQNFQPPPQPPSEEQFGCPGSPSPQPDSTDNDDYDDISAA
Consider B1, for which the % COS cells binding TE cells in [37] stood at 25%.
